The results in this text go back to patent US20180142030A1 (Bristol-Myers Squibb, published 2018).

Changes are numbered by the printed parent chain. Names may count otherwise.

T1: FcγRIIb (human, UniProt P31994 43-217, limits assumed)
T1 construct: Construct not described; also called hCD32b/FcγRIIb
T1 sequence (looked up): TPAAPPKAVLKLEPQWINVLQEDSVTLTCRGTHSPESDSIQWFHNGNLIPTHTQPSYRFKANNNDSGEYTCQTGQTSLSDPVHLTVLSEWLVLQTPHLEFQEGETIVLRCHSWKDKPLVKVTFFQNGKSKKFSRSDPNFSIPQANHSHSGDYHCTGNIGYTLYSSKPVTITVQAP

T2: FcγRIIa-H131 (human, UniProt P12318 34-218, limits assumed)
T2 construct: Construct not described; also called hCD32a/FcγRIIa-H131
T2 sequence (looked up): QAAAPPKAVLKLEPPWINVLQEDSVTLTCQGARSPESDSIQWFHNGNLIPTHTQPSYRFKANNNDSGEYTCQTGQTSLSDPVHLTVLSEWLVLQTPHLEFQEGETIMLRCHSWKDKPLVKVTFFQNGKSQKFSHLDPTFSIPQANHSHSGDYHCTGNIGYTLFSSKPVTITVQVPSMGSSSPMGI

T3: FcγRIIa-R131 (human, UniProt P12318 34-218, limits assumed)
T3 construct: Construct not described
T3 sequence (looked up): T2 sequence (looked up) with H134R

B1: 12D6-24 V9 (antibody, human IgG1, kappa)
heavy: QVQLVQSGAEVKKPGASVKVSCKASGYTFTGYNMNWVRQAPGQGLEWMGNIDPYYGNTNYNQKFKGRVTMTTDTSTSTAYMELRSLRSDDTAVYYCARLGLQLYALDYWGQGTTVTVSSASTKGPSVFPLAPSSKSTSGGTAALGCLVKDYFPEPVTVSWNSGALTSGVHTFPAVLQSSGLYSLSSVVTVPSSSLGTQTYICNVNHKPSNTKVDKRVEPKSCDKTHTCPPCPAPELLGDDSVFLFPPKPKDTLMISRTPEVTCVVVDVSHEDGEVKFNWYVDGVEVHNAKTKPREEQYNSTYRVVSVLTVLHQDWLNGKEYKCKVSNKALPRPIEKTISKAKGQPREPQVYTLPPSREEMTKNQVSLTCLVKGFYPSDIAVEWESNGQPENNYKTTPPVLDSDGSFFLYSKLTVDKSRWQQGNVFSCSVMHEALHNHYTQKSLSLSPG
light: DIVMTQTPLSLPVTPGEPASISCRSSQSLVHSNANTYLHWYLQKPGQSPQLLIYKLTNRFFGVPDRFSGSGSGTDFTLKISRVEAEDVGVYYCSQSIHVPWTFGGGTKVEIKRTVAAPSVFIFPPSDEQLKSGTASVVCLLNNFYPREAKVQWKVDNALQSGNSQESVTEQDSKDSTYSLSSTLTLSKADYEKHKVYACEVTHQGLSSPVTKSFNRGEC
B2: 12D6-24-V9-DS-sup (antibody)
heavy: B1 heavy with D272S
light: B1 light
notes: Tested as supernatant of antibody-producing cells; also called 12D6-24 V9 D270S; copies: 2 + 2
B3: 12D6-24 V9 D270E (antibody, human IgG1, kappa)
heavy: B1 heavy with D272E
light: B1 light
B4: 12D6-24-V9-DA-sup (antibody)
heavy: B1 heavy with D272A
light: B1 light
notes: Tested as supernatant of antibody-producing cells; also called 12D6-24 V9 D270A; copies: 2 + 2
B5: 12D6-24-V9-DQ-sup (antibody)
heavy: B1 heavy with D272Q
light: B1 light
notes: Tested as supernatant of antibody-producing cells; also called 12D6-24 V9 D270Q; copies: 2 + 2
B6: 5F11-45 V4 D270E (antibody, human IgG1, kappa)
heavy: QVQLVQSGAEVKKPGSSVKVSCKASGYTFTDLSMHWVRQAPGQGLEWMGYITPSSGYTAYNQKFKGKTTLTADKSTSTAYMELSSLRSEDTAVYYCARLILQRGAYWGQGTLVTVSSASTKGPSVFPLAPSSKSTSGGTAALGCLVKDYFPEPVTVSWNSGALTSGVHTFPAVLQSSGLYSLSSVVTVPSSSLGTQTYICNVNHKPSNTKVDKRVEPKSCDKTHTCPPCPAPELLGGDSVFLFPPKPKDTLMISRTPEVTCVVVDVSHEEGEVKFNWYVDGVEVHNAKTKPREEQYNSTYRVVSVLTVLHQDWLNGKEYKCKVSNKALPAPIEKTISKAKGQPREPQVYTLPPSREEMTKNQVSLTCLVKGFYPSDIAVEWESNGQPENNYKTTPPVLDSDGSFFLYSKLTVDKSRWQQGNVFSCSVMHEALHNHYTQKSLSLSPG
light: DIVLTQSPDSLAVSLGERATINCRASKNVDSYGNSFMHWYQQKPGQPPKLLIYRASNLESGVPDRFSGSGSGTDFTLTISSLQAEDVAVYYCQQSNEDPLTFGQGTKLEIKRTVAAPSVFIFPPSDEQLKSGTASVVCLLNNFYPREAKVQWKVDNALQSGNSQESVTEQDSKDSTYSLSSTLTLSKADYEKHKVYACEVTHQGLSSPVTKSFNRGEC
notes: also called 5F11-45 D270E V4
B7: 5F11-45-V9-DT-sup (antibody, human IgG1, kappa)
heavy chain: B6 heavy with G237D, E270T, A330R
light chain: B6 light
notes: Tested as supernatant of antibody-producing cells; also called 5F11-45 V9 D270T

The target in the first assay is T1, FcγRIIb. Kind of assay: BLI (ForteBio Octet), %Rmax at 1 µM hCD32b/FcγRIIb. On the procedure:
(§1) See Example 8. Antibody names including “-sup” represent supernatants from antibody producing cells, whereas others are purified antibodies. Data are presented as percentages of a maximum receptor binding value for each combination of antibody and receptor, as measured in a ForteBio Octet system. See, e.g., Example 3. Each cluster of three bars represents, from left to right, binding to hCD32a/FcγRIIa-H131 (10 μM) (hatched bars), […] (10 μM) (black bars), and hCD32b/FcγRIIb (1 μM) (white bars).
(§2) Supernatants were obtained from cells expressing these antibodies and assayed for binding to hCD32/FcγRII. Selected purified antibodies without mutations at position 270 were used as controls.
Background: In BLI a coated tip is dipped into the sample, and binding shifts an interference pattern.
As for B1, the binding result is on record as “binds”.
The same measure, in the same setting: in the case of B2 it was “binds”; in that of B3, “binds”; in that of B4, “binds”.
As to B5, the binding result is “binds”.
The same measure, in the same setting: in the case of B6 it was “binds”; in that of B7, “binds”.

In another assay the target is T2, FcγRIIa-H131. Kind of assay: BLI (ForteBio Octet), %Rmax at 10 µM hCD32a/FcγRIIa-H131. As for the experimental part:
as §1, §2
On to B1, for which the binding result is given as “binds”.
Same read-out and setting: the value for B2 was “binds”; that for B3 was “binds”.
The same measure, in the same setting: in the case of B4 it was “binds”.
On the same count and under the same terms, the value for B5 was “binds”.

The target of another assay is T3, FcγRIIa-R131. Kind of assay: BLI (ForteBio Octet), %Rmax at 10 µM FcγRIIa-R131 (CD32a-R131 on the sheet). As for the experimental part: as §1, §2
B1: the binding result is reported as “binds”.
Still for that read-out and setting: the value for B2 was “binds”.
Consider B3, for which the binding result is “binds”.
Same read-out and setting: in the case of B4 it was “binds”; in that of B5, “binds”; in that of B6, “binds”.
Take B7: the binding result was “binds”.
